# Measured values reported in paper PMC4865633, “Data on dimer formation between importin α subtypes” (Data in Brief, 2016).
# B1: GST-h-importin α3 (KPNA4, Qip1) (natural protein)
# chain: MADNEKLDNQRLKNFKNKGRDLETMRRQRNEVVVELRKNKRDEHLLKRRNVPHEDICEDSDIDGDYRVQNTSLEAIVQNASSDNQGIQLSAVQAARKLLSSDRNPPIDDLIKSGILPILVHCLERDDNPSLQFEAAWALTNIASGTSEQTQAVVQSNAVPLFLRLLHSPHQNVCEQAVWALGNIIGDGPQCRDYVISLGVVKPLLSFISPSIPITFLRNVTWVMVNLCRHKDPPPPMETIQEILPALCVLIHHTDVNILVDTVWALSYLTDAGNEQIQMVIDSGIVPHLVPLLSHQEVKVQTAALRAVGNIVTGTDEQTQVVLNCDALSHFPALLTHPKEKINKEAVWFLSNITAGNQQQVQAVIDANLVPMIIHLLDKGDFGTQKEAAWAISNLTISGRKDQVAYLIQQNVIPPFCNLLTVKDAQVVQVVLDGLSNILKMAEDEAETIGNLIEECGGLEKIEQLQNHENEDIYKLAYEIIDQFFSSDDIDEDPSLVPEAIQGGTFGFNSSANVPTEGFQF
# notes: human importin α3 (KPNA4, Qip1); plasmid pGEX2T-human-importin α3, obtained as described previously; also called GST-importin α3; IMPα3; source: E. coli Rosetta, purified on GSH beads, bacterially expressed and purified recombinant protein
# Tests used:
# Details in all cases: both partners purified
# [1] = target: T1, GST-h-importin α8 (KPNA7) (human, UniProt A9QM74 1-516); test: pull-down; GST fusions immobilized on GSH beads, 100 pmol FLAG-importin α in 200 μL transport buffer (20 mM HEPES pH 7.3, 110 mM potassium acetate, 2 mM magnesium acetate, 1 mM EGTA, 1 mM DTT) with 0.1% Triton X-100, 4 °C, 1 h; western blot with anti-FLAG and anti-GST (Fig. 1A)
# T1 construct: human importin α8 (KPNA7); also called GST-importin α8; IMPα8; source: E. coli Rosetta, purified on GSH beads, bacterially expressed and purified recombinant protein
# [2] = target: GST-m-importin α1 (KPNA2) (mouse, UniProt P52293 1-529); test: as above
# [3] = target: B1; test: pull-down; GST-h-importin α3 (50 pmol) on GSH beads preincubated with p53 (250 pmol) in TB with 0.1% Triton X-100 at 4 °C for 1 h, washed, then 50 or 500 pmol FLAG-h-importin α8 or α1 added at 4 °C for 1 h; western blot (Fig. 2B)
# [4] = target: B1; test: pull-down; GST-h-importin α3 (50 pmol) on GSH beads preincubated with SV40TNLS-GFP (50 pmol) at 4 °C for 1 h, washed, then 50 or 500 pmol FLAG-h-importin α8 or α1 added at 4 °C for 1 h; western blot (Fig. 1B)
# [5] = target: FLAG-h-importin α1 (KPNA2) (human, UniProt P52292 1-529); test: pull-down; GST-h-importin α3 (50 pmol) on GSH beads preincubated with p53 (250 pmol) in TB with 0.1% Triton X-100 at 4 °C for 1 h, washed, then 50 or 500 pmol FLAG-h-importin α8 or α1 added at 4 °C for 1 h; western blot (Fig. 2B)
# T1 sequence (A9QM74 whole entry, the tested form may be a part): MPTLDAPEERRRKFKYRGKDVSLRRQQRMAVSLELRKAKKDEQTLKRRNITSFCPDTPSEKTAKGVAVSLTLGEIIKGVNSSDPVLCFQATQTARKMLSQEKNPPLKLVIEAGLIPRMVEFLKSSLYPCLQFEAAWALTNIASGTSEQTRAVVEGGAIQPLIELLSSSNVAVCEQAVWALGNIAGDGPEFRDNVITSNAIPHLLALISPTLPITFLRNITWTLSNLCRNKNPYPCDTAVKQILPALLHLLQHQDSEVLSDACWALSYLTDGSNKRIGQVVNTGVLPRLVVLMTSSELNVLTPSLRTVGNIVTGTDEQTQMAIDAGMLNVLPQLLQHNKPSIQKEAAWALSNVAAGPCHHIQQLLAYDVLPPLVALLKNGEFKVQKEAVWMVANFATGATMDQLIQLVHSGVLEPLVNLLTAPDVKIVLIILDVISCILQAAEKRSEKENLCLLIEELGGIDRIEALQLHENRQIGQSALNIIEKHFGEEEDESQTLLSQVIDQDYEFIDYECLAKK
binder,measurement,setting,value
"FLAG-h-importin α8 (KPNA7) (natural protein, human importin α8 (KPNA7), amplified from pcDNA5/3xFLAG-h-importin α8 with primers from the start codon to the stop codon, in pGEX6P3; Cleavage of GST is told in general in the methods; also called FLAG-importin α8; IMPα8; source: E. coli Rosetta, GST fusion purified on GSH beads, bacterially expressed and purified recombinant protein; not shown: FLAG, N-terminal, kept) not shown",binding result,[1],binds
same,binding result,[2],binds
same,binding result,[3],binds
"PPKKKRKVED (domain or fragment, also called SV40TNLS substrate; SV40 large T antigen NLS) [SV40TNLS-GFP]",binding result,[4],binds
B1,binding result,[5],binds
